Here are results for six molecules from patent US20170355773A1.

Where a chain is given by its changes, count along the chain named.

B1: 27A3 (scFv mutant of W3072-z4C12) (scFv, V domains shown, not shown: small tags and cut ends)
VH: EVQLVESGGGLSQPGNSLQLSCEASGFTFSNHDLNWVRQAPGKGLEWVAYISSASGLISYADAVRGRFTISRDNAKNSLFLQMNNLKSEDTAMYYCARDPPYTGLYALDFWGQGTQVTVSS
VL: QPVLTQSPSASASLSGSVKLTCTLSSELSSYTIVWYQQRPDKAPKYVMYLKSDGSHSKGDGIPDRFSGSSSGAHRYLSISNVQSEDDATYFCGAGYTLAGQYGWVFGSGTKVTVL
B2: 42F9 (scFv mutant of W3072-z4C12) (scFv, V domains shown, not shown: small tags and cut ends)
VH: B1 VH with T103S
VL: B1 VL with S30F
B3: 66B8 (scFv mutant of W3072-z4C12) (scFv, V domains shown, not shown: small tags and cut ends)
VH: B1 VH with T103S
VL: B1 VL with G100N
B4: 43F11 (scFv mutant of W3072-z4C12) (scFv, V domains shown, not shown: small tags and cut ends)
VH: B1 VH with T103S
VL: B1 VL with Y31F
B5: 42G2 (scFv mutant of W3072-z4C12) (scFv, V domains shown, not shown: small tags and cut ends)
VH: B1 VH with T103S
VL: B1 VL with S30W
B6: 42H8 (scFv mutant of W3072-z4C12) (scFv, V domains shown, not shown: small tags and cut ends)
VH: B1 VH with T103S
VL: B1 VL with S30Y

One experiment deals with TNFRSF25-Fc protein (UniProt Q93038). The experiment can be described thus: single point capture ELISA: scFv on anti-c-myc, biotinylated antigen, streptavidin-HRP.
With B1, the OD450 was found to be 1.61. On the same count and under the same terms, in the case of B2 it was 2.33. As to B3, the OD450 turned out to be 0.4. B4 returned an OD450 of 1.6. Still for that read-out and setting: with B5 the figure was 3.19; with B6, 1.67.

A further experiment shares this target. Put plainly: capture ELISA, scFv, against the wild-type.
On to B5, for which the fold increase in ELISA signal was > 10 fold.
